Data published in patent publication US6458927B1, “Polypeptide with appetite regulating activity” (Novo Nordisk A/S, priority 1997, dated 2002).

System: Mice
Experiment: Test method for measuring appetite suppression in mice (milk consumption after ICV injection)
Assay type: in vivo
Details: for % Feeding Suppression: food deprived, milk consumption over 10 minutes, 30 min after injection, percent reduction relative to control mean
Procedure: Mice were deprived of their normal feed for two days and given free access to a solution of nutritionally complete infant formula milk (Complan®) for the first day, after which food deprivation was complete for the last day before testing. After one day of food deprivation, mice were injected intra-cerebroventricularly (ICV) in the lateral ventricle with 10 microliters of a solution containing the test substance. Thirty minutes after injection, mice were individually placed in a 15×15×15 cm test box with a stainless steel grid floor and a glass drinking tube which projected into the box. The drinking tube was connected to a reservoir containing the formula milk solution, and the interior of the drinking tube contained an electrode enabling the detection of drinking contacts with the solution by measuring the flow of a weak (unnoticeable) electric current through mice by means of an electronic apparatus connected to the drinking tube electrode and the stainless steel grid floor. Consumption of the milk solution was measured over a 10 minutes period by electronically recording the total amount of contact with the milk solution during the test session. The degree of appetite suppression produced by a given test substance was determined by statistical comparison of the duration of milk consumption by control (vehicle treated) mice with that of mice treated with a test substance. The degree of appetite suppression in a treated group of mice was expressed as percent reduction of consumption relative to the mean of the control group's response.

B1: Ala-Leu-Asp-Ile-Tyr-Ser-Ala-Val-Asp-Asp-Ala-Ser-His-Glu-Lys-Glu-Leu-Ile- Glu-Ala-Leu-Gln-Glu-Val-Leu-Lys-Lys-Leu-Lys-Ser-Lys-Arg-Ile-Pro-Ile-Tyr- … (protein)
chain: ALDIYSAVDDASHEKELIEALQEVLKKLKSKRIPIYEKKYGQVPMCDAGEQCAVRKGARIGKLCDCPRGTSCNSFLLKCL
notes: recombinant rat CART fragment 10-89 from FXa digest of thioredoxin-CART fusion (E. coli)
**Q.** Which results are given for B1?
**A.** % Feeding Suppression (ICV dose 1 microgram): 41%; % Feeding Suppression (ICV dose 2 micrograms): 70%; % Feeding Suppression (ICV dose 5 micrograms): 71%; % Feeding Suppression (ICV dose 10 micrograms): 59%; % Feeding Suppression (ICV dose 20 micrograms): 78%; suppression of milk consumption (statistical significance, in words) (intra-cerebroventricular injection in phosphate buffered saline, over the dose range tested for the substance): statistically significant suppression of milk consumption
